Test results taken from US20240343803A1 (SHANDONG SIMCERE BIOPHARMACEUTICAL, published 2024).
Numbering of substitutions follows the chain as printed.

T1: human PVRIG-his (AcroBiosystems, Cat NO. PVG-H52H4) (human, UniProt Q6DKI7 41-171, limits assumed)
T1 construct: also called human PVRIG protein
T1 sequence (looked up): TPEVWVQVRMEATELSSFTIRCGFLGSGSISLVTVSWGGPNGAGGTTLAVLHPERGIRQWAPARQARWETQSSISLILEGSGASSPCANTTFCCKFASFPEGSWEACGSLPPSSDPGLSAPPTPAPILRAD

T2: cynomolgus monkey PVRIG (Novoprotein, Cat NO. C09B) (cynomolgus monkey, UniProt A0A2K5WVV8 41-171)
T2 construct: also called cynomolgus monkey PVRIG protein
T2 sequence: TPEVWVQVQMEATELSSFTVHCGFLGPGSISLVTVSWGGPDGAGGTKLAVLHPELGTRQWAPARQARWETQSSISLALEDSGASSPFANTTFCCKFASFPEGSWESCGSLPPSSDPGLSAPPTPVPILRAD

B1: PVRIG-A50-H1 (Fc fusion)
chain: EVQLVESGGGLVQPGGSLRLSCAASGFTFSYYDMSWVRQAPGKGLEWVSTINSNGGRTSYVDSVKGRFTISRDNSKNTLYLQMNSLRAEDTAVYYCVEGDPHNFGLENLSLRDFGSWGQGTMVTVSS
notes: humanized variant of PVRIG-A50; also called A50.VH1; not shown: constant part not restated for the humanized forms; parents are VHH-hinge-CH2-CH3 of human IgG1; detected by anti-human
B2: PVRIG-A50-H1d (Fc fusion)
chain: B1 chain with N108S
notes: humanized variant of PVRIG-A50; also called A50.VH1d; not shown: constant part not restated for the humanized forms; parents are VHH-hinge-CH2-CH3 of human IgG1; detected by anti-human
B3: PVRIG-A118-H7 (Fc fusion)
chain: EVQLVESGGGLVQPGGSLRLSCAASETYFDLYVMGWYRQAPGKDRELVATITYTGSIKYVDSVKGRFTISRGDAKNSLYLQMNSLRAEDTAVYFCNADPSGLGRKVYWGQGTMVTVSS
notes: humanized variant of PVRIG-A118; also called A118.VH7; not shown: constant part not restated for the humanized forms; parents are VHH-hinge-CH2-CH3 of human IgG1; detected by anti-human
B4: PVRIG-A118-H3 (Fc fusion)
chain: B3 chain with F94Y
notes: humanized variant of PVRIG-A118; also called A118.VH3; not shown: constant part not restated for the humanized forms; parents are VHH-hinge-CH2-CH3 of human IgG1; detected by anti-human
B5: PVRIG-A118-H2 (Fc fusion)
chain: B3 chain with G72D, D73N, F94Y
notes: humanized variant of PVRIG-A118; also called A118.VH2; not shown: constant part not restated for the humanized forms; parents are VHH-hinge-CH2-CH3 of human IgG1; detected by anti-human
B6: PVRIG-A118-H1 (Fc fusion)
chain: B3 chain with K58Y, G72D, D73N, F94Y
notes: humanized variant of PVRIG-A118; also called A118.VH1; not shown: constant part not restated for the humanized forms; parents are VHH-hinge-CH2-CH3 of human IgG1; detected by anti-human

Each binder was assayed against T1, human PVRIG-his (AcroBiosystems, Cat …) (assay: competition ELISA, PVRIG-His coated, competitor human PVRL2-mFc).
Parameters: AUC: unit not given here
Protocol: The ELISA plate was pre-coated with 100 μL/well of 0.5 μg/mL human PVRIG-his protein (AcroBiosystems, Cat NO. PVG-H52H4). The tested anti-PVRIG antibodies were diluted from the highest concentration of 16 nM (two-fold concentration). The diluted antibodies were mixed with 18 ng/ml human PVRL2-mFc (AcroBiosystems, Cat NO. CD2-H5257) in equal volume, added into the plate (100 μL/well), and incubated with shaking at room temperature for 2.0 hours. […] A HRP substrate, TMB (Thermo, Cat NO. 34029) was added into wells after washing the plate again for color development. After adding a termination solution to terminate the reaction, the absorbance value was read by a microplate reader (MD i3×). An inhibiting curve was drawn with concentration of antibodies as the abscissa and the corresponding OD value as the ordinate. The IC50 value was calculated by using a Four Parameter Logistic Fit (GraphPadPrism9). The smaller the IC50 value, the stronger the ability of the antibodies inhibits the binding between PVRIG and PVRL2. The positive and negative controls are the same as in Example 8.
The methods refer to Example 11. The inhibiting activity of the humanized antibodies was normalized to the corresponding parental antibodies. If the percentage value is higher than 100%, the inhibiting effect of humanized antibodies is better than that of parental antibodies.

% relative activity (AUC) parental antibody/test antibody [%] | % relative activity (IC50) parental antibody/test antibody [%] | AUC | IC50 [nM] | Binder
82.6 | 77.5 | 2.42 | 1 | B1
83.2 | 75 | 2.4 | 1.03 | B2
114 | 129 | 1.38 | 0.43 | B3
106 | 144 | 1.49 | 0.386 | B4
117 | 156 | 1.35 | 0.357 | B5
121 | 157 | 1.31 | 0.355 | B6

These binders were tested against T1, human PVRIG-his (AcroBiosystems, Cat …) (assay: SPR (BIAcore), antibody captured on Protein A chip, human PVRIG-His analyte).
Protocol: Biacore was used to detect the specific binding between anti-PVRIG antibody and human PVRIG protein. Protein A chip was used in the BIAcore assay. The time required for the chip to capture the diluted antibody and saturate the binding antigen to reach Rₘₐₓ (Maximum binding capacity, 50 RU) was measured by manual run. […] The affinity of antibody for antigen was measured by multi-cycle kinetics. In each cycle, the antibodies were injected prior to the injection of gradient concentraions of PVRIG proteins allowing the occurrence of antibody-antigen association and dissociation After each cycle, the Protein A chip was regenerated by Glycine, pH 1.5 (to remove the proteins on the chip). The affinity of antibody for antigen was calculated by BIAcore T200 analysis software.
The methods refer to Example 10.

Kd [nM] | koff [s⁻¹] | kon [M⁻¹ s⁻¹] | Binder
0.0362 | 1.48e-05 | 410000 | B1
0.0545 | 1.43e-05 | 262000 | B2
1.08 | 0.0026 | 2.41e+06 | B3
1.35 | 0.00349 | 2.59e+06 | B4
0.517 | 0.00082 | 1.59e+06 | B5
0.478 | 0.000658 | 1.38e+06 | B6

What follows are binders tested against T2, cynomolgus monkey PVRIG (Novoprotein, …) (assay: ELISA, antigen coated).
Protocol: (§1) The ELISA plate was pre-coated with 100 μL/well of 0.5 μg/mL human PVRIG-his (AcroBiosystems, Cat NO. PVG-H52H4) or cynomolgus monkey PVRIG (Novoprotein, Cat NO. C09B). The tested anti-PVRIG humanized antibodies were serially diluted (initial concentration 3 nM, 3-fold serial dilution), added into the plate (100 μL/well) and incubated with shaking at room temperature for 1.5 hours. […] A HRP substrate, TMB (Thermo, Cat NO. 34029) was added into wells after washing the plate again for color development. After adding a termination solution to terminate the reaction, the absorbance value was read by a microplate reader (MD i3×). An antibody binding curve was drawn with concentration of antibodies as the abscissa and the corresponding OD value as the ordinate. The EC50 value was calculated by using a Four Parameter Logistic Fit (GraphPadPrism9). The smaller the EC50 value, the stronger the ability of the antibodies binds to human or cynomolgus monkey PVRIG. The binding effect of the humanized antibodies was normalized to the corresponding parental antibodies. If the percentage value is higher than 100%, the binding effect of humanized antibodies is better than that of parental antibody.

% relative activity parental antibody/tested antibody [%] | EC50 [nM] | Binder
95.1 | 0.13 | B1
111 | 0.111 | B2
33.1 | 0.0817 | B3
34 | 0.0794 | B4
4.55 | 0.594 | B5
4.62 | 0.585 | B6

Each binder was assayed against T1, human PVRIG-his (AcroBiosystems, Cat …) (assay: ELISA, antigen coated).
Protocol: as §1

% relative activity parental antibody/tested antibody [%] | EC50 [nM] | Binder
105 | 0.0871 | B1
118 | 0.0774 | B2
99.9 | 0.0501 | B3
100 | 0.05 | B4
102 | 0.0491 | B5
110 | 0.0456 | B6
